# Assay results reported in paper doi:10.1101/2025.05.26.656162.
# Biological target: Sam68 N-terminal region (human, UniProt Q07666 1-96)
# Experiment: single-molecule nanoaperture optical tweezers
# Sam68 N-terminal region, sequence (Q07666 1-96): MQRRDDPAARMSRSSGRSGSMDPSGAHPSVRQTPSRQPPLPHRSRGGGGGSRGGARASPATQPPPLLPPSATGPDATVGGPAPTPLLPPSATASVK
binder,measurement,value
GGGUGACACACUAGCUAUAGCAUUAAAAGACCGAGCAAGU (ssRNA) [G8.5 RNA],Kd,~8 µM
